Reference: patent US20020160000A1 (Dana-Farber, published 2002)
Blank lines part the entries; values can stand above or below the binder they belong to.

Experiments:
[1] = target: T1, human B7-4M (B7-4 membrane form) expressed on transfected COS or CHO cells (human, UniProt Q9NZQ7 19-290); assay: FACS on B7-4M-transfected COS cells
T1 construct: Cell-surface form on transiently transfected COS cells or on CHO transfectants; also called B7-4M (292); COS cells expressing B7-4M
Description: COS cells were transfected with either vector DNA (pcDNAI), or an expression plasmid containing the B7-4M cDNA. After 72 hours, the transfected COS cells were detached by incubation in PBS containing 0.5 mM EDTA for 30 min. at 37° C.
The ability of COS cells expressing B7-4M to bind to various T cell receptors and antibodies was tested. […] The ability of COS cells expressing B7-4M to bind to IgG and murine ICOS-his fusion protein was also tested.

[2] = target: T2, human PD-1-Fc (extracellular region of human PD-1 fused to hinge-CH2-CH3 of human immunoglobulin gamma 1) (human, UniProt P01857 99-330 = IgG part); assay: BIACORE, PD-1-Fc immobilized
T2 construct: domain: hinge-CH2-CH3; also called PD-1-Fc (human Ig gamma1); Human PD-1 linked to IgG1

[3] = target: T1, human B7-4M (B7-4 membrane form) …; assay: flow cytometry on human B7-4 CHO cells
[4] = target: T3, soluble human B7-4.Ig / B7-4-Fc fusion protein (Example 11) (human, UniProt Q9NZQ7 19-238); assay: BIACORE, PD-1-Fc immobilized, concentrated COS cell medium injected
T3 construct: not shown: Fc/Ig portion
T3 sequence (Q9NZQ7 19-238): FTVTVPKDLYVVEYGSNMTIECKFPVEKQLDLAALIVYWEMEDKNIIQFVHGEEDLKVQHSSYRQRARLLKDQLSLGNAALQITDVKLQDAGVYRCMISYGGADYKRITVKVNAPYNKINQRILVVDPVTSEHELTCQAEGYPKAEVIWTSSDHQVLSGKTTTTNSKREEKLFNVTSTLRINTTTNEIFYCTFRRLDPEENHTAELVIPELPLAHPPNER

T2 sequence (P01857 other isoform, or with tags, fused parts or gaps limits assumed): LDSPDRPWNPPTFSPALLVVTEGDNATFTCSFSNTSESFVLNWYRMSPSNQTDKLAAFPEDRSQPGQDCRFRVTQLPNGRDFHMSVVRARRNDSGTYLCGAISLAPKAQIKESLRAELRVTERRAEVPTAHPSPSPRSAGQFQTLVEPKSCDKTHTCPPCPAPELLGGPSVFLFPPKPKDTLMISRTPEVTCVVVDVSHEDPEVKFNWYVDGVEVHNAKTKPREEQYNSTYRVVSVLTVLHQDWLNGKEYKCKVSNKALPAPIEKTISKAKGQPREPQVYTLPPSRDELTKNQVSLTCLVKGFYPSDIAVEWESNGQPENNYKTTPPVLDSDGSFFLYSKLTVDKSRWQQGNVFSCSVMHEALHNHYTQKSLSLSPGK
T1 sequence (Q9NZQ7 19-290): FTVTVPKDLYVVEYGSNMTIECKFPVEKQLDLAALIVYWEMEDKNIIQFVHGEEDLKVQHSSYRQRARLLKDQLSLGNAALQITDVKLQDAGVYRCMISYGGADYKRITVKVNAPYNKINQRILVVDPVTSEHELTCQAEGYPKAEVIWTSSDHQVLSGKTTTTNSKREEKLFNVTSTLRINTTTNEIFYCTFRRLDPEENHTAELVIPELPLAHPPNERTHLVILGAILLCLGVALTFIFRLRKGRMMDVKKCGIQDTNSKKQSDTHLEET

B1: murine ICOS-his fusion protein (receptor, UniProt Q9WVS0 21-144, looked up)
chain: EINGSADHRMFSFHNGGVQISCKYPETVQQLKMRLFREREVLCELTKTKGSGNAVSIKNPMLCLYHLSNNSVSFFLNNPDSSQGSYYFCSLSIFDPPPFQERNLSGGYLHIYESQLCCQLKLWL
notes: not shown: his tag
binding result [1]: no binding

B3: murine PD-1-Fc / murine PD-1.Ig fusion protein (Fc fusion, UniProt Q02242 25-169, looked up)
chain: LEVPNGPWRSLTFYPAWLTVSEGANATFTCSLSNWSEDLMLNWNRLSPSNQTEKQAAFCNGLSQPVQDARFQIIQLPNRHDFHMNILDTRRNDSGIYLCGAISLHPKAKIEESPGAELVVTERILETSTRYPSPSPKPEGRFQGM
notes: also called mouse PD-1; not shown: Fc/Ig portion
binding result [3]: binds
binding result [4]: binds

More lines, now with the values ahead:

binding result [2]: no binding
B2: soluble form of human B7-1 (ligand)
chain: VIHVTKEVKEVATLSCGHNVSVEELAQTRIYWQKEKKMVLTMMSGDMNIWPEYKNRTIFDITNNLSIVILALRPSDEGTYECVVLKYEKDAFKREHLAEVTLSVKADFPTPSISDFEIPTSNIRRIICSTSGGFPEPHLSWLENGEELNAINTTVSQDPETELYAVSSKLDFNMTTNHSFMCLIKYGHLRVNQTFNWNTTKQEHFPDN
notes: also called soluble forms of B7-1

binding result [2]: no binding
B4: soluble form of human B7-2 (ligand)
chain: APLKIQAYFNETADLPCQFANSQNQSLSELVVFWQDQENLVLNEVYLGKEKFDSVHSKYMGRTSFDSDSWTLRLHNLQIKDKGLYQCIIHHKKPTGMIRIHQMNSELSVLANFSQPEIVPISNITENVYINLTCSSIHGYPEPKKMSVLLRTKNSTIEYDGVMQKSQDNVTELYDVSISLSVSFPDVTSNMTIFCILETDKTRLLSSPFSIELEDPQPPPDHIP
notes: also called soluble forms of B7-2
